Series [1] deals with T1, HMPV M2-1 (Human metapneumovirus strain NL1-00 (A1), UniProt Q8QN58 1-187). As to the kind of experiment: SAXS titration; Zn2+ (zinc finger intact); 150 mM NaCl, 500 mM NDSB-201; closed conformation induced, Rg up to ~8 nm, aggregation; SAXS: 20 mM Tris pH 7.5, 150 mM NaCl, 500 mM NDSB-201, +/- 5 mM EDTA, ~0.2 mg/ml protein; TSA: 50 mM HEPES pH 7.5, 150 mM NaCl, 20-99 C; crystals: 28% PEG MME 2000, 0.1 M bis-Tris pH 6.5, 20 C. As to conditions: protein: recombinant; tags: N-terminal His6-3C, optionally removed by 3C protease; chain copies: 4.

Series [2] concerns the target T1, HMPV M2-1. As to the kind of experiment: SAXS titration; Zn2+ (zinc finger intact); 150 mM NaCl, 500 mM NDSB-201; Rg increase, aggregation; SAXS: 20 mM Tris pH 7.5, 150 mM NaCl, 500 mM NDSB-201, +/- 5 mM EDTA, ~0.2 mg/ml protein; TSA: 50 mM HEPES pH 7.5, 150 mM NaCl, 20-99 C; crystals: 28% PEG MME 2000, 0.1 M bis-Tris pH 6.5, 20 C. As to conditions: protein: recombinant; tags: N-terminal His6-3C, optionally removed by 3C protease; chain copies: 4.

Consider AGUUAAUUAAAAA (ssRNA) [F gene end RNA (positive sense)], for which the binding result with HMPV M2-1 [1] is recorded as “binds”.

With ACGCGAAAAAAU (ssRNA) [leader RNA 1-12 (positive sense)], the binding result with HMPV M2-1 [2] is listed as “binds”.

Values taken from paper PMC4051120, “Drastic changes in conformational dynamics of the antiterminator M2-1 regulate transcription efficiency in Pneumovirinae”.
